18 sequences from the supplement of paper PMC12764529 can be followed below.

± gives the half width of the 95% confidence interval.

Data set [1] is described as follows: folding stability dG unfold from chymotrypsin proteolysis; higher = more stable. The essentials:
(§1)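 Sequencing followed digestion of designed mini-proteins with trypsin and chymotrypsin, each at 11 concentrations in threefold dilutions together with a no-protease condition. The mini-proteins were under 80 residues, had no cysteine, sat in a PA-tagged cDNA display construct, and were kept only if AlphaFold2 dimer inter-PAE was above 15. From the counts, Bayesian fitting gave K50, and unfolding free energy was derived against a sequence-predicted unfolded-state K50 and a shared folded-state K50, per protease or combined.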

A short description of data set [2]: folding stability dG unfold from trypsin proteolysis; higher = more stable. The essentials:
as §1

Data set [3] in a line: folding stability dG unfold (combined trypsin and chymotrypsin); higher = more stable. The essentials: as §1

For “SAGGSEFIPVVAEFPEDVTPEDVARAVRELERAGFVVERVEVERFPDPDGRERYRVRVVLRRPEELSAGGSA [r2_442_TrMRF]”, the “folding stability dG unfold” value in data set [1] was found to be 3.841 ± 0.0097 kcal/mol; in data set [2] it was 3.53 ± 0.081 kcal/mol; in data set [3], 3.732 ± 0.035 kcal/mol.

In the case of “SAGGSEKIEVEVERREDGYLVLRVRLELFDENGELVEEIEIEVVLPREELEKMSLEELLKRLLEELSAGGSA [r2_421_TrROS_Hall]”, the “folding stability dG unfold” value in data set [1] is 5.25 ± 0.38 kcal/mol; in data set [2] it was 3.99 ± 0.17 kcal/mol; in data set [3], 5.08 ± 0.67 kcal/mol.

Regarding “SAGGSEKVKIEIPFRHPEDGEPIFPVRIEYEKPPNGDYKLDIEIDNFPPGMKPSPAAKDAIEEFIKSAGGSA [r2_7_TrROS]”, the “folding stability dG unfold” value in data set [1] amounted to 1.29 ± 0.052 kcal/mol; in data set [2] it was 0.588 ± 0.07 kcal/mol; in data set [3] it was 0.956 ± 0.19 kcal/mol.

As to “SAGGSEKVTIELEFRNPETGELIATVKIELERLPNGEIKAKIEFTNLPEGVELSEEMKKLLEELLKSAGGSA [r2_7_TrROS_Hall]”, the “folding stability dG unfold” value was found to be 2.93 ± 0.19 kcal/mol in data set [1], 2.5 ± 0.31 kcal/mol in data set [2] and 2.77 ± 0.34 kcal/mol in data set [3].

For the sequence “SAGGSELKPGDLVEVKVTVEFDEETGKATVEVEFNGKKLTVEVELEENQPPTVEVTLLVRIDKIEPSAGGSA [r2_113_TrROS_Hall]”, the “folding stability dG unfold” value was found to be 2.48 ± 0.1 kcal/mol in data set [1], 2.36 ± 0.17 kcal/mol in data set [2] and 2.46 ± 0.15 kcal/mol in data set [3].

Regarding “SAGGSEPPKIKKIKDINVKHERHNDRPYWEVKIRIKLKNGNTAEIDIEMPGMPPEEAREQIKDILKSAGGSA [r2_26_TrROS]”, the “folding stability dG unfold” value stood at 0.872 ± 0.089 kcal/mol in data set [1], 0.391 ± 0.15 kcal/mol in data set [2] and 0.938 ± 0.36 kcal/mol in data set [3].

“SAGGSERTIMIPVEPGMSPEQIADEIKAILRELGPGRPIEIDDVHPGGWVKIKINNKPIKIHIMWPSAGGSA [r2_102_TrROS]”: the “folding stability dG unfold” value in data set [1] came to 1.3 ± 0.081 kcal/mol; in data set [2] it was 1.31 ± 0.038 kcal/mol; in data set [3], 1.32 ± 0.1 kcal/mol.

Consider “SAGGSETVEIELGSEDGTVYKIEIERFPETGLLLIKVDGPDPKVIEKVVKELGVDVVEVLEDGYVLLASAGG [r13_937_TrMRF]”, for which the “folding stability dG unfold” value in data set [1] worked out at 1.89 ± 0.05 kcal/mol; in data set [2] it was 1.45 ± 0.059 kcal/mol; in data set [3] it was 1.78 ± 0.065 kcal/mol.

Turning to “SAGGSEVVLEAEGVDPATGKPYTVRVVYDKETGVPVVEVRDADGTLLAVIPVPPDKALEALKELGVSAGGSA [r2_115_TrMRF]”, the “folding stability dG unfold” value in data set [1] was determined as 3.046 ± 0.013 kcal/mol; in data set [2], 2.92 ± 0.08 kcal/mol; in data set [3], 2.99 ± 0.067 kcal/mol.

Turning to “SAGGSFDPVEITTLEDGTIKILAKDPNTNKLFITTLKAKSIKTSSLGNGKTITTIPHEKVEESEELPSAGGS [r16_615_JUSTAS]”, the “folding stability dG unfold” value in data set [1] is -0.0729 ± 0.51 kcal/mol; in data set [2], -0.795 ± 0.66 kcal/mol; in data set [3], -0.554 ± 0.67 kcal/mol.

As to “SAGGSFEFKAEVFYDKEKDIYYVKIPYILKNTGKIIPIVKKVKAGDPIPVEKLAEKIAKELEELGISAGGSA [r2_221_TrMRF]”, the “folding stability dG unfold” value in data set [1] came to 1.89 ± 0.066 kcal/mol; in data set [2] it was 0.357 ± 0.079 kcal/mol; in data set [3], 1.36 ± 0.1 kcal/mol.

Regarding “SAGGSFEVEVEVERYPEENYYYVKIPIRLPNNGKKIPLDVPVPADDPEPAEKWAKFIAKELAKQGISAGGSA [r2_221_TrROS]”, the “folding stability dG unfold” value in data set [1] is -0.1 ± 0.27 kcal/mol; in data set [2] it was -0.0866 ± 0.14 kcal/mol; in data set [3] it was -0.1 ± 0.23 kcal/mol.

“SAGGSFHDLAKELAKKRGLKKVSINMHPEDNSMNINIQNPEKGRPVQGNIPMEDMTPETVLDQIENILESAG [r5_896_TrROS]”: the “folding stability dG unfold” value in data set [1] is 0.297 ± 0.28 kcal/mol; in data set [2], -1.04 ± 0.69 kcal/mol; in data set [3] it was -0.0716 ± 0.24 kcal/mol.

On to “SAGGSFVVIEPTADGVRIVLEDDGALREVPVSPEVAAALAANPDLEGVVRSLLPEGHPIERIAAVPGSAGGS [r16_567_TrMRF]”, for which the figures for the “folding stability dG unfold” value in data set [1], in data set [2] and in data set [3] were -0.476 ± 0.17 kcal/mol, -0.755 ± 0.24 kcal/mol and -0.451 ± 0.2 kcal/mol, respectively.

For the sequence “SAGGSGEVRPLELEFTLPNGAKIKITLHVYPDGTVKVEARIEFGGEYLELRFEFEGEKVPLDFPDFGSAGGS [r16_523_TrMRF]”, the figures for the “folding stability dG unfold” value in data set [1], in data set [2] and in data set [3] were 3.73 ± 0.11 kcal/mol, 3.58 ± 0.13 kcal/mol and 3.73 ± 0.2 kcal/mol, respectively.

Turning to “SAGGSGIEAAILEAVEKGLNPVELTFRLPEDGKLVVLKVEVLDVLDGGAIVKVEMEVYDPENPKKISAGGSA [r2_420_TrMRF]”, the “folding stability dG unfold” value in data set [1] was determined as 2.14 ± 0.063 kcal/mol; in data set [2], 1.06 ± 0.089 kcal/mol; in data set [3] it was 1.83 ± 0.1 kcal/mol.

Turning to “SAGGSGMIKTETTVTITFPGGETVSFPATVTYDPETGKTEVEVNLPEAALAELKERAPDAEVNVLLSAGGSA [r2_409_JUSTAS]”, the results for the “folding stability dG unfold” value in data set [1], in data set [2] and in data set [3] were 0.681 ± 0.014 kcal/mol, 1.76 ± 0.032 kcal/mol and 1.29 ± 0.046 kcal/mol, respectively.

Turning to “SAGGSGMIYVIKIKLEPTIKPGKKKEFEFELVLEATPEEIEEVLEKIKKLPKNIKIKEIKIEVFPESAGGSA [r2_75_TrMRF]”, the “folding stability dG unfold” value came to 3.18 ± 0.073 kcal/mol in data set [1], 2.08 ± 0.12 kcal/mol in data set [2] and 2.6 ± 0.32 kcal/mol in data set [3].
